Experimental data reported in publication PMC11714857, “PRDX5 and PRDX6 translocation and oligomerization in bull sperm: a response to cryopreservation-induced oxidative stress” (Cell Communication and Signaling : CCS, 2025).
“And” between values parts separate entries of the source, which are not always exact repeats. Equal values may be shown once.

Biological target: the molecule itself
Assay: non-reducing SDS-PAGE with Western blot; native protein extracts of fresh or cryopreserved bull sperm, 30 ug protein, Laemmli buffer with 1.275% SDS and without 2-mercaptoethanol, 12% gels; compared with standard reducing SDS-PAGE; oligomer bands stronger after cryopreservation

Row | Protein | stoichiometry N
1 | peroxiredoxin 5 (enzyme, Bos taurus (endogenous in bull sperm), UniProt Q9BGI1 58-219, looked up, peroxiredoxin 5 (PRDX5) from Bos taurus, endogenous in bull sperm; runs as a single 17.5 kDa band in standard SDS-PAGE; The oligomers are disulfide-linked, as they appear only in non-reducing SDS-PAGE; also called PRDX5; source: endogenous, bull sperm lysate (native protein extraction; fresh or cryopreserved sperm)) MAPIKVGDAIPSVEVFEKEPGNKVNLAELFKGKKGVLFGLPGAFTPGCSKTHLPGFVEQADALKAKGIQVVACLTVNDVFVTEEWARAHKAEGKVRLLADPSGTFGKETDLLLDDSLLFLFGNHRLKRFSMVIEDGIVKSLNVEPDGTGLTCSLAPNILSQL | 6
2 | peroxiredoxin 6 (enzyme, bovine (endogenous in bull sperm), UniProt O77834 1-224, looked up, peroxiredoxin 6 (PRDX6), bovine, endogenous in bull sperm; runs as a single 25 kDa band in standard SDS-PAGE; The oligomers are disulfide-linked, as they appear only in non-reducing SDS-PAGE; also called PRDX6; source: endogenous, bull sperm lysate (native protein extraction; fresh or cryopreserved sperm)) MPGGLLLGDEAPNFEANTTIGRIRFHDYLGDSWGILFSHPRDFTPVCTTELGRAAKLAPEFAKRNVKMIALSIDSVEDHLAWSKDINAYNGEEPTEKLPFPIIDDKNRDLAIQLGMLDPAEKDEKGMPVTARVVFIFGPDKKLKLSILYPATTGRNFDEILRVIISLQLTAEKRVATPVDWKNGDSVMVLPTIPEEEAKKLFPKGVFTKELPSGKKYLRYTPQP | 2 and 6
